# B1: Centrosomal protein of 55 kDa (Homo sapiens), Q53EZ4 (parent)
# chain: MSSRSTKDLIKSKWGSKPSNSKSETTLEKLKGEIAHLKTSVDEITSGKGKLTDKERHRLLEKIRVLEAEKEKNAYQLTEKDKEIQRLRDQLKARYSTTTLLEQLEETTREGERREQVLKALSEEKDVLKQQLSAATSRIAELESKTNTLRLSQTVAPNCFNSSINNIHEMEIQLKDALEKNQQWLVYDQQREVYVKGLLAKIFELEKKTETAAHSLPQQTKKPESEGYLQEEKQKCYNDLLASAKKDLEVERQTITQLSFELSEFRRKYEETQKEVHNLNQLLYSQRRADVQHLEDDRHKTEKIQKLREENDIARGKLEEEKKRSEELLSQVQFLYTSLLKQQEEQTRVALLEQQMQACTLDFENEKLDRQHVQHQLHVILKELRKARNQITQLESLKQLHEFAITEPLVTFQGETENREKVAASPKSPTAALNESLVECPKCNIQYPATEHRDLLVHVEYCSK
# partner: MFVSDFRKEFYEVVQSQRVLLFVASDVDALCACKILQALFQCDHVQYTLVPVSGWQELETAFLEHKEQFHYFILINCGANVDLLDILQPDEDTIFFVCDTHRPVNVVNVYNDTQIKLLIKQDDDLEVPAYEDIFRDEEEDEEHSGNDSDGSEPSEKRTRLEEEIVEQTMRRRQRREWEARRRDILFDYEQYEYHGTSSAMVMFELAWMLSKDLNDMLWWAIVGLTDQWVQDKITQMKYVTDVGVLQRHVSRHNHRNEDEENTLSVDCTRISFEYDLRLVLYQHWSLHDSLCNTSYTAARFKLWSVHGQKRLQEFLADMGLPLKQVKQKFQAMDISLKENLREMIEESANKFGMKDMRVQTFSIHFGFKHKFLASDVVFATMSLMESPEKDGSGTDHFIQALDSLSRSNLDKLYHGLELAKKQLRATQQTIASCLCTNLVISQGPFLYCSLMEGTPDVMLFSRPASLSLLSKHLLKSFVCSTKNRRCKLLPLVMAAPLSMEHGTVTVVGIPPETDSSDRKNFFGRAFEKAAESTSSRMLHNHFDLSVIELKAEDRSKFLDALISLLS
# B2: Microtubule-associated tumor suppressor candidate 2 (Homo sapiens), Q5JR59-3 (parent)
# chain: MGHCCCKPYNCLQCLDKTNESALVKEKELSIELANIRDEVAFHTAKCEKLQKEKEELERRFEDEVKRLGWQQQAELQELEERLQLQFEAEMARLQEEHGDQLLSIRCQHQEQVEDLTASHDAALLEMENNHTVAITILQDDHDHKVQELMSTHELEKKELEENFEKLRLSLQDQVDTLTFQSQSLRDRARRFEEALRKNTEEQLEIALAPYQHLEEDMKSLKQVLEMKNQQIHEQEKKILELEKLAEKNIILEEKIQVLQQQNEDLKARIDQNTVVTRQLSEENANLQEYVEKETQEKKRLSRTNEELLWKLQTGDPTSPIKLSPTSPVYRGSSSGPSSPARVSTTPR
# partner: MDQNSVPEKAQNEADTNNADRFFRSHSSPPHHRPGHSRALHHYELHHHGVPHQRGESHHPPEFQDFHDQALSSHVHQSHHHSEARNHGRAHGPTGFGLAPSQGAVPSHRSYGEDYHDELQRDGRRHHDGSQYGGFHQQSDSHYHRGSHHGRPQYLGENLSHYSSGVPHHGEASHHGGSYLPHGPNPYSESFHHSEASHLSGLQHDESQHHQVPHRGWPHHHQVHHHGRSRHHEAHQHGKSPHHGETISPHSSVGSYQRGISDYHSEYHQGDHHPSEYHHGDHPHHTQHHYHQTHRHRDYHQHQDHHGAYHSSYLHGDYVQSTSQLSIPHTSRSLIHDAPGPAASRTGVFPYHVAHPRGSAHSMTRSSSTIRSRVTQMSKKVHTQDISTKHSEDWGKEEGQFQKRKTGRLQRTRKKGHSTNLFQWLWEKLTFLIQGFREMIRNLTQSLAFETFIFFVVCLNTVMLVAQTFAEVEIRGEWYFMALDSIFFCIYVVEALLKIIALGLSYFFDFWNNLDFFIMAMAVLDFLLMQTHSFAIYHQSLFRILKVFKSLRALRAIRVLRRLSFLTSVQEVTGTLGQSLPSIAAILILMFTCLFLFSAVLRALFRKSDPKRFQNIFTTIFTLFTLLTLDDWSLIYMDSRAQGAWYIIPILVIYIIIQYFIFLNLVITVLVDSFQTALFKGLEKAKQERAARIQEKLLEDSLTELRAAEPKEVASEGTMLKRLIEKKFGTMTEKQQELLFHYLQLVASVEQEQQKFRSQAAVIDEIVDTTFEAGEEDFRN
# B3: Protein LDOC1 (Homo sapiens), O95751 (parent)
# chain: MVDELVLLLHALLMRHRALSIENSQLMEQLRLLVCERASLLRQVRPPSCPVPFPETFNGESSRLPEFIVQTASYMLVNENRFCNDAMKVAFLISLLTGEAEEWVVPYIEMDSPILGDYRAFLDEMKQCFGWDDDEDDDDEEEEDDY
# partner: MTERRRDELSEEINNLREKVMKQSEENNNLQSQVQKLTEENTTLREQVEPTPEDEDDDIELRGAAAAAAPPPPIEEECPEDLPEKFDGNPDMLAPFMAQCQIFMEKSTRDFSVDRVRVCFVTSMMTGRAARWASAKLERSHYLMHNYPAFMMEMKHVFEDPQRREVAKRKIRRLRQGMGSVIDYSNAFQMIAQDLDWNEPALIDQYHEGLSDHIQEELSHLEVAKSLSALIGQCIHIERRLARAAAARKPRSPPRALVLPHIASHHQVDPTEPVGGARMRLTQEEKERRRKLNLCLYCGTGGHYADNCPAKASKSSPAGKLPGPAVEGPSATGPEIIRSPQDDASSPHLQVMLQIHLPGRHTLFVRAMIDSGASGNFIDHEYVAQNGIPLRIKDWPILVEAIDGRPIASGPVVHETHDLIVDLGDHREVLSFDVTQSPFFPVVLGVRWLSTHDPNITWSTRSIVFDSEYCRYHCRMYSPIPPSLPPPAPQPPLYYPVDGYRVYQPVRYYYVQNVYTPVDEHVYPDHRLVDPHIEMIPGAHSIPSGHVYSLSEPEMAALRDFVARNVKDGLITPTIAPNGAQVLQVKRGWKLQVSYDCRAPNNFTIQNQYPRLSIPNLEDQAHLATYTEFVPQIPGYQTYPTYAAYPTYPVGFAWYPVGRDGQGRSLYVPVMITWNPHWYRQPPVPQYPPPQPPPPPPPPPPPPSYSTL
# B4: Nebulette (Homo sapiens), O76041 (parent)
# chain: MRVPVFEDIKDETEEEKIGEEENEEDQVFYKPVIEDLSMELARKCTELISDIRYKEEFKKSKDKCTFVTDSPMLNHVKNIGAFISEAKYKGTIKADLSNSLYKRMPATIDSVFAGEVTQLQSEVAYKQKHDAAKGFSDYAHMKEPPEVKHAMEVNKHQSNISYRKDVQDTHTYSAELDRPDIKMATQISKIISNAEYKKGQGIMNKEPAVIGRPDFEHAVEASKLSSQIKYKEKFDNEMKDKKHHYNPLESASFRQNQLAATLASNVKYKKDIQNMHDPVSDLPNLLFLDHVLKASKMLSGREYKKLFEENKGMYHFDADAVEHLHHKGNAVLQSQVKYKEEYEKNKGKPMLEFVETPSYQASKEAQKMQSEKVYKEDFEKEIKGRSSLDLDKTPEFLHVKYITNLLREKEYKKDLENEIKGKGMELNSEVLDIQRAKRASEMASEKEYKKDLESIIKGKGMQAGTDTLEMQHAKKAAEIASEKDYKRDLETEIKGKGMQVSTDTLDVQRAKKASEMASQKQYKKDLENEIKGKGMQVSMDIPDILRAKRTSEIYSQRKYKDEAEKMLSNYSTIADTPEIQRIKTTQQNISAVFYKKEVGAGTAVKDSPEIERVKKNQQNISSVKYKEEIKHATAISDPPELKRVKENQKNISNLQYKEQNYKATPVSMTPEIERVRRNQEQLSAVKYKGELQRGTAISDPPELKRAKENQKNISNVYYRGQLGRATTLSVTPEMERVKKNQENISSVKYTQDHKQMKGRPSLILDTPAMRHVKEAQNHISMVKYHEDFEKTKGRGFTPVVDDPVTERVRKNTQVVSDAAYKGVHPHIVEMDRRPGIIVDLKVWRTDPGSIFDLDPLEDNIQSRSLHMLSEKASHYRRHWSRSHSSSTFGTGLGDDRSEISEIYPSFSCCSEVTRPSDEGAPVLPGAYQQSHSQGYGYMHQTSVSSMRSMQHSPNLRTYRAMYDYSAQDEDEVSFRDGDYIVNVQPIDDGWMYGTVQRTGRTGMLPANYIEFVN
# partner: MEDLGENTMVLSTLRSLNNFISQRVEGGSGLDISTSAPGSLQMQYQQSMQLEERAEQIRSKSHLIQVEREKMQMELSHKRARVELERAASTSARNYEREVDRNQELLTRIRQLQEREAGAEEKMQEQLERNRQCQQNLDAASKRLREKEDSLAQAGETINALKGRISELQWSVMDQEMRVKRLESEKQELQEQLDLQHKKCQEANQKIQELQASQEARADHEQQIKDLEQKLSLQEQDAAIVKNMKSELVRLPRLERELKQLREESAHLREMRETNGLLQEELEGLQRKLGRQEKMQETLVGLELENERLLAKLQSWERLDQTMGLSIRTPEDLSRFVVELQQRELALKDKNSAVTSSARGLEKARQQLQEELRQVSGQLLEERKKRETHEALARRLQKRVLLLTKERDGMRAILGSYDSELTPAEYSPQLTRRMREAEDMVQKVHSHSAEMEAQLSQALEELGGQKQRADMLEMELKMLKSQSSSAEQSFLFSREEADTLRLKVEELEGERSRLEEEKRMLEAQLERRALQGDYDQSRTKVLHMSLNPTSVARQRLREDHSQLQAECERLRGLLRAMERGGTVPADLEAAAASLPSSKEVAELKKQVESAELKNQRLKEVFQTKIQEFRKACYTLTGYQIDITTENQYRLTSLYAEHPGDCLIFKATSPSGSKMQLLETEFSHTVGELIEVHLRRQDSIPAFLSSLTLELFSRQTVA
# Variants of: B1
# Settings: with cdc45_human CDC45, O75419
row,Variant,effect of a mutation on the interaction
1,H57Q,with no effect
2,C236R,with no effect

# Variants of: B2
# Settings: with ctsr1_human CATSPER1, Q8NEC5
row,Variant,effect of a mutation on the interaction
1,A89V,with no effect

# Variants of: B3
# Settings: with peg10_human PEG10, Q86TG7
row,Variant,effect of a mutation on the interaction
1,L12H,with no effect

# Variants of: B4
# Settings: with md1l1_human MAD1L1, Q9Y6D9
row,Variant,effect of a mutation on the interaction
1,M351V,with no effect
